# ± gives the uncertainty stated by the source.
# B1: Lysine-specific demethylase 5C, residues 319 to 373; numbered along this chain, P41229 (parent)
# chain: AQFIESYVCRMCSRGDEDDKLLLCDGCDDNYHIFCLLPPLPEIPKGVWRCPKCVM
# Variants of: B1
# Test: abundance fitness (aPCA) (normalised: wild type 0, dead -1); higher = more abundant; growth selection in yeast, the domain comes from the species named
# Settings: Homo sapiens
row,Variant,abundance fitness
1,G15M,-0.142 ± 0.1
2,G15C,0.167 ± 0.12
3,G15I,-0.065 ± 0.1
4,G15N,-0.231 ± 0.099
5,G15P,0.04 ± 0.074
6,G15D,-0.058 ± 0.12
7,D29V,-0.228 ± 0.19
8,D29N,0.274 ± 0.24
9,D29M,-0.237 ± 0.44
10,D29A,0.06 ± 0.43
11,D29F,-0.128 ± 0.34
12,D29L,-0.101 ± 0.19
13,D29G,-0.077 ± 0.21
14,D29R,0.004 ± 0.17
15,D29E,0.017 ± 0.32
16,D29Y,0.036 ± 0.26
17,C35A,-0.83 ± 0.15
18,C35P,-0.638 ± 0.29
19,C35R,-0.41 ± 0.12
20,C35K,-0.947 ± 0.34
21,C35E,-0.794 ± 0.26
22,C35N,-0.842 ± 0.43
23,C35S,-0.597 ± 0.12
24,C35H,-0.235 ± 0.24

row,Variant,abundance fitness
1,C35Q,-1.03 ± 0.46
2,C35I,-1 ± 0.4
3,C35F,-0.556 ± 0.24
4,C35G,-0.9 ± 0.21
5,R14S,0.188 ± 0.16
6,N30G,0.052 ± 0.073
7,N30P,-0.088 ± 0.11
8,N30M,-0.206 ± 0.13
9,N30L,-0.238 ± 0.092
10,N30Y,-0.143 ± 0.15
11,N30S,-0.068 ± 0.089
12,N30R,0.071 ± 0.075
13,N30K,0.098 ± 0.1
14,N30C,0.006 ± 0.12
15,N30H,-0.176 ± 0.25
16,N30W,-0.117 ± 0.11
17,N30F,-0.077 ± 0.18
18,N30V,0.152 ± 0.081
19,N30I,0.219 ± 0.18
20,N30D,-0.774 ± 0.23
21,N30Q,0.157 ± 0.11
22,N30E,-0.052 ± 0.12
23,D16G,0.085 ± 0.1
24,D16C,-0.115 ± 0.15

row,Variant,abundance fitness
1,D16Q,-0.16 ± 0.14
2,D16T,-0.182 ± 0.12
3,D16Y,-0.115 ± 0.19
4,D16R,-0.026 ± 0.1
5,D16N,0.131 ± 0.18
6,D16V,-0.029 ± 0.1
7,D16A,-0.063 ± 0.12
8,D16M,0.086 ± 0.13
9,D16F,0.277 ± 0.17
10,D16W,-0.351 ± 0.18
11,D16E,-0.072 ± 0.12
12,D16K,-0.265 ± 0.15
13,D16S,0.104 ± 0.093
14,D16I,0.089 ± 0.19
15,S13R,0.007 ± 0.09
16,S13Y,-0.149 ± 0.15
17,S13Q,-0.183 ± 0.16
18,S13L,0.044 ± 0.095
19,S13F,-0.2 ± 0.15
20,S13H,-0.239 ± 0.2
21,S13C,-0.171 ± 0.14
22,S13D,-0.042 ± 0.18
23,S13A,-0.231 ± 0.1
24,S13V,-0.121 ± 0.1

row,Variant,abundance fitness
1,S13I,-0.029 ± 0.16
2,S13W,-0.237 ± 0.17
3,S13G,0.074 ± 0.1
4,S13P,-0.13 ± 0.14
5,S13E,0.419 ± 0.15
6,S13K,-0.196 ± 0.26
7,S13N,-0.212 ± 0.17
8,S13T,-0.035 ± 0.12
9,C24Y,-0.812 ± 0.27
10,L21R,-0.221 ± 0.11
11,L21P,-0.683 ± 0.098
12,L21C,-0.304 ± 0.15
13,L21M,-0.167 ± 0.14
14,L21S,-0.605 ± 0.09
15,L21V,-0.348 ± 0.11
16,L21T,-0.164 ± 0.09
17,L21Y,-0.338 ± 0.11
18,L21N,-0.366 ± 0.12
19,L21F,-0.078 ± 0.1
20,L21Q,-0.353 ± 0.19
21,L21E,-0.531 ± 0.27
22,L21I,-0.044 ± 0.12
23,L21D,-0.87 ± 0.26
24,L21H,-0.458 ± 0.11

row,Variant,abundance fitness
1,L21A,-0.426 ± 0.1
2,K20T,0.096 ± 0.13
3,K20M,-0.596 ± 0.2
4,K20G,-0.666 ± 0.2
5,K20C,-0.379 ± 0.3
6,K20W,-0.317 ± 0.24
7,K20N,-0.327 ± 0.23
8,K20L,-0.087 ± 0.099
9,K20Q,-0.093 ± 0.14
10,K20A,-0.065 ± 0.13
11,K20P,-0.043 ± 0.12
12,K20F,-0.16 ± 0.17
13,K20R,-0.136 ± 0.15
14,K20I,-0.489 ± 0.19
15,K20H,-0.103 ± 0.19
16,K20Y,-0.035 ± 0.22
17,K20V,-0.253 ± 0.14
18,C27N,-0.806 ± 0.22
19,C27A,-0.921 ± 0.33
20,C27I,-0.923 ± 0.41
21,C27R,-0.759 ± 0.11
22,C27Q,-0.522 ± 0.2
23,C27D,-0.646 ± 0.29
24,C27W,-1.06 ± 0.27

row,Variant,abundance fitness
1,C27M,-0.507 ± 0.19
2,C27V,-0.752 ± 0.15
3,C27Y,-0.779 ± 0.21
4,C27L,-0.842 ± 0.16
5,C27T,-0.694 ± 0.18
6,C27G,-0.825 ± 0.13
7,C27S,-0.823 ± 0.14
8,C27H,-0.905 ± 0.29
9,D25I,-0.224 ± 0.1
10,D25V,-0.009 ± 0.094
11,D25T,-0.016 ± 0.1
12,D25N,-0.293 ± 0.1
13,D25K,-0.199 ± 0.17
14,D25C,-0.274 ± 0.12
15,D25R,-0.058 ± 0.091
16,D25W,-0.383 ± 0.18
17,D25E,-0.246 ± 0.16
18,D25P,-0.355 ± 0.1
19,D25L,-0.381 ± 0.083
20,D25Y,-0.44 ± 0.12
21,D25A,0.158 ± 0.091
22,D25G,-0.081 ± 0.12
23,D25S,-0.062 ± 0.079
24,D25Q,-0.218 ± 0.16

row,Variant,abundance fitness
1,D25F,-0.394 ± 0.12
2,D25M,-0.419 ± 0.14
3,L22F,-0.551 ± 0.24
4,L22N,-0.4 ± 0.14
5,L22M,0.05 ± 0.1
6,L22K,-0.332 ± 0.13
7,L22H,-0.612 ± 0.23
8,L22A,-0.243 ± 0.098
9,L22R,-0.169 ± 0.078
10,L22Q,-0.561 ± 0.23
11,L22D,-1.1 ± 0.37
12,L22C,-0.052 ± 0.13
13,L22S,-0.474 ± 0.092
14,L22V,-0.163 ± 0.11
15,L22W,-0.838 ± 0.16
16,L22Y,-1.07 ± 0.45
17,L22P,-0.897 ± 0.2
18,L22G,-0.912 ± 0.16
19,L22E,-0.523 ± 0.17
20,C12Y,-0.87 ± 0.25
21,I33K,-0.423 ± 0.43
22,I33R,-0.381 ± 0.49
23,I33L,-0.496 ± 0.5
